Source: US20220073599A1 (Hoffmann-La Roche, published 2022)

T1: human VEGFA-121 (human, UniProt P15692 181-395)
T1 construct: sources differ (in-house, R&D, Peprotech); also called hVEGF-A121
T1 sequence: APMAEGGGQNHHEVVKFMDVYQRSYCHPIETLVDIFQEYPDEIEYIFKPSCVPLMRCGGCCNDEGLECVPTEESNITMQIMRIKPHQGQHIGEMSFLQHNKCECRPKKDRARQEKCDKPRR

T2: human Ang2-RBD (human, UniProt O15123 275-496, limits assumed)
T2 construct: also called Human ANG2 (SPR); Angiopoietin 2-RBD
T2 sequence: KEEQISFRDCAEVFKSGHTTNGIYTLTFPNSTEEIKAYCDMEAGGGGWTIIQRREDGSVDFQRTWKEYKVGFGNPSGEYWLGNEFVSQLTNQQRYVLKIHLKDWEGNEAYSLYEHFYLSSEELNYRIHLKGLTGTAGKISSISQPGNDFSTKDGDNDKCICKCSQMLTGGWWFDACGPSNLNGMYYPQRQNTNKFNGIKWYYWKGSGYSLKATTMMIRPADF

T3: human VEGFA-121-His (human, UniProt P15692 181-395)
T3 construct: Prepared in-house; not shown: His tag
T3 sequence: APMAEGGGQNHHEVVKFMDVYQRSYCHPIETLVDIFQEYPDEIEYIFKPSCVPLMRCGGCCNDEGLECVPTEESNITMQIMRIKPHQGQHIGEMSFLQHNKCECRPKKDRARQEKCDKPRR

T4: ANG2 (human, UniProt O15123 19-496, limits assumed)
T4 sequence: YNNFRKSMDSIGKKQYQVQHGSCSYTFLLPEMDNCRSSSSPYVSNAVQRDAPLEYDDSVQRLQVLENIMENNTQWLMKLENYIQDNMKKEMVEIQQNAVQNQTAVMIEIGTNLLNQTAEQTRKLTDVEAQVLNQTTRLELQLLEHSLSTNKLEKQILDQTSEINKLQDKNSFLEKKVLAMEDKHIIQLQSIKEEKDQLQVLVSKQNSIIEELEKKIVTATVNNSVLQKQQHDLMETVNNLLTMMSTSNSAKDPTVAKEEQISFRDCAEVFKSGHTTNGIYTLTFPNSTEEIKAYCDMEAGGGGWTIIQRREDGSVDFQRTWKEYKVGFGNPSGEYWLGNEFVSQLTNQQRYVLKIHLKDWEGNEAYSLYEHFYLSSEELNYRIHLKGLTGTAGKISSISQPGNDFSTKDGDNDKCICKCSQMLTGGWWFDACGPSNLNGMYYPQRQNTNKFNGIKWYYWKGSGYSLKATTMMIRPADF


How the values were obtained:
[1] = target: T1, human VEGFA-121; assay: SPR, Fab captured by anti-Fab antibody; 1) VEGFA-121 alone, then buffer; final signal in % of the sum of the single signals
Protocol: (§1) The bispecific Fab was captured by injecting a 6.5 μg/ml solution for 60 sec at a flow of 5 μl/min. Independent binding of each ligand to the bispecific Fab was analysed by determining the active binding capacity for each ligand, either added sequentially or simultaneously (flow of 10 μl/min): [0359] […] [0360] 2) Injection of human Ang2 with a concentration of 5 μg/ml for 60 sec (identifies single binding of the antigen) [0361] […] [0362] […] [0363]
(§2) Independent binding of candidate antibodies to human VEGF-A and human ANG2 was analysed by SPR as described above in the “Materials & general methods” section.

[2] = target: T2, human Ang2-RBD; assay: SPR, Fab captured by anti-Fab antibody; 2) Ang2-RBD alone, then buffer; final signal in % of the sum of the single signals
Protocol: as §1, §2

[3] = target: T3, human VEGFA-121-His; assay: KinExA equilibrium titration in solution, constant VEGFA-121-His
Protocol: All KinExA® experiments were performed at room temperature (RT) using PBS pH 7.4 with 0.01% BSA and 0.01% Tween® 20 (BioRad, #161-0781) as running buffer. […] A flow rate of 0.25 ml/min was used. […] Antigen-antibody complexes were incubated at RT for at least 8 h to allow equilibrium to be reached. […] Each sample was measured in duplicates for all equilibrium experiments. The KD was obtained from non-linear regression analysis of the data using a one-site homogeneous binding model contained within the KinExA® software (Version 4.0.11) using the “standard analysis” method. The software calculates the KD and determines the 95% confidence interval by fitting the data points to a theoretical KD curve. The 95% confidence interval is given as KD low and KD high.
(§3) Binding kinetics to human VEGF-A and human ANG2 for the candidate antibodies were assessed as described above using the indicated Fab fragments (amino acid sequence as illustrated in Table 4).

[4] = target: T2, human Ang2-RBD; assay: SPR, Fab captured by anti-Fab antibody, Ang2-RBD injected, 25 C, 1:1 fit
Protocol: An anti-Fab capturing antibody (GE Healthcare 28958325) was immobilized to a Series S Sensor Chip C1 (GE Healthcare BR100535) using standard amine coupling chemistry resulting in a surface density of approximately 800 resonance units (RU). As running and dilution buffer, HBS-P+ (10 mM HEPES, 150 mM NaCl pH 7.4, 0.05% Surfactant P20) was used, the temperature of measurement was 25° C. The tested antibody was captured by injecting a 50 nM solution for 60 sec at a flow of 5 μl/min. Association was measured by injection of human Ang2-RBD in various concentrations in solution for 180 sec at a flow of 30 μl/min (0.07 nM-50 nM, 1:3 dilution). The dissociation phase was monitored for up to 900 sec and triggered by switching from the sample solution to running buffer at a flow rate of 30 μl/min. The surface was regenerated by injection of 10 mM Glycine pH 2.1 for 60 s at a flow rate of 30 μl/min. Bulk refractive index differences were corrected by subtracting blank injections and by subtracting the response obtained from the reference flow cell without captured tested antibody. Curve fitting was performed using the 1:1 Langmuir binding model within the Biacore® evaluation software.
as §3

[5] = target: T4, ANG2; assay: cell-based or functional assay
[6] = target: T1, human VEGFA-121; assay: cell-based or functional assay
[7] = target: T2, human Ang2-RBD; assay: SPR, Fab captured by anti-Fab antibody; 3) VEGFA-121 first, then Ang2-RBD (binding of Ang2 in the presence of VEGFA-121); final combined signal of both antigens
Protocol: as §1, §2

[8] = target: T3, human VEGFA-121-His; assay: KinExA equilibrium titration in solution, VEGFA-121

| Signal [%] [1] [%] | Signal [%] [2] [%] | Kd [3] [pM] | Kd [4] [pM] | koff [4] [s⁻¹] | kon [4] [M⁻¹ s⁻¹] | IC50, pTie2-Assay (Tie2 phosphorylation in Hek293 cells expressing Tie2, stimulated with Ang-2) [5] [nM] | IC50, Reporter Gene Assay (Hek_NFAT_KDR_Luc cells stimulated with VEGF-A121, luminescence) [6] [pM] | Signal [%] [7] [%] | Kd [8] [pM] | Binder |
| --- | --- | --- | --- | --- | --- | --- | --- | --- | --- | --- |
| 50 | 50 | 11.4 | 19 | 0.000106 | 5.51e+06 | 7 | 1090 | 85 |  | bispecific anti-VEGF-A/anti-ANG2 Fab fragment P1AA0902 (Fab, V domains shown, Bispecific Fab with two paratopes in one VH/VL pair) VH: DDHLVESGGGLVKPGGSLRLSCATADFFEYDDMSWVRQAPGKGLEWVGSISGRGDHKYLNTKFIGRFTISRDDSKNTLYLQMNSLRAEDTAVYYCARDVGFFDWWGQGTLVTVSS VL: AIYMHQEPSSLSASVGDRVTITCHGSYWLNSELAWYQQKPGKAPKLLIFDGDFKVFDVPSRFSGSGSHEDYTLTISSLQPEDFATYYCQQYRYHPYTFGHGTKVEIKR |
| 50 | 50 | 10.9 | 4550 | 0.032 | 7.03e+06 |  |  | 82 |  | bispecific anti-VEGF-A/anti-ANG2 Fab fragment P1AA8906 (Fab, V domains shown, Bispecific Fab with two paratopes in one VH/VL pair (DutaFab); CH1 and Ckappa) VH: DFQLVESGGGLVKPGGSLRLSCAASYEFEYDDMSWVRQAPGKGLEWVGSISPKGGSTYYNTKFIGRFTISRDNSKNTLYLQMNSLRAEDTAVYYCARDVGFFDMWGQGTLVTVSS VL: AIYMHQEPSSLSASVGDRVTITCHGSYWLSNYLAWYQQKPGKAPKLLIFDARWLVHGVPSRFSGSGSHEDYTLTISSLQPEDFATYYCQQYRYHPYTFGHGTKVEIKR |
| 50 | 50 | 3.85 | 8 | 5.78e-05 | 7.43e+06 | 10 | 1070 | 85 | ~4 | bispecific anti-VEGF-A/anti-ANG2 Fab fragment P1AD9820 (Fab, V domains shown, Bispecific Fab with two paratopes in one VH/VL pair; also called P1AD9820 Fab) VH: SEHLVESGGGLVKPGGSLRLSCATADFFEYDDMSWVRQAPGKGLEWVGSISPKGDHKYLNTKFIGRFTISRDDSKNTLYLQMNSLRAEDTAVYYCARDVGFFDWWGQGTLVTVSS VL: AIYMHQEPSSLSASVGDRVTITCHGSYWLNSEVAWYQQKPGKAPKLLIFDGDFKVYEVPSRFSGSGSHEDYTLTISSLQPEDFATYYCQQYRYHPYTFGHGTKVEIKR |
